Reference: article PMC7316778 (Nature Communications, 2020)

Columns and labels:
FES^WT [1] = target: T1, FES^WT (Homo sapiens, UniProt P07332); assay: In vitro TR-FRET kinase assay; format: biochemical; conditions: TR-FRET assay, 5 µM ATP; n = 3
T1 construct: human FES cDNA encoding residues 448–822 or human FER cDNA encoding residues 448–820 was amplified by PCR; made in house; host or cells: E. coli BL21(DE3), co-expressing YopH phosphatase
Experimental: All measurements were performed in triplicate.

FES^S700C = FES^S700C (Homo sapiens, UniProt P07332, S700C); assay: In vitro TR-FRET kinase assay; format: biochemical; design: human FES cDNA encoding residues 448–822 or human FER cDNA encoding residues 448–820 was amplified by PCR; made in house; host or cells: E. coli BL21(DE3), co-expressing YopH phosphatase
Chain of FES^S700C (P07332 448-822 S700C): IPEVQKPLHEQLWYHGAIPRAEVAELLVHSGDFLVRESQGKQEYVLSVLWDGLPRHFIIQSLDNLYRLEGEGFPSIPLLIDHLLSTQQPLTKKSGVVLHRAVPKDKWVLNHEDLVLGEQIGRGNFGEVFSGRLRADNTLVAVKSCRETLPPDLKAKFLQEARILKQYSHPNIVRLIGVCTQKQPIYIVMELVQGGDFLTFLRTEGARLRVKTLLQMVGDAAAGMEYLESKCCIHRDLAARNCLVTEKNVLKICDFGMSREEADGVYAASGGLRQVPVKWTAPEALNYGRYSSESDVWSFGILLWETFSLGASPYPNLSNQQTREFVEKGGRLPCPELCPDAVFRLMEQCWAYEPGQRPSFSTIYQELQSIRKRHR

FGR = FGR (Homo sapiens, UniProt P09769); assay: PamChip microarray peptide phosphorylation; conditions: peptide substrate phosphorylated by FGR
LYN = LYN (Homo sapiens, UniProt P07948); assay: PamChip microarray peptide phosphorylation; conditions: peptide substrate phosphorylated by LYN
Chain of LYN (P07948 whole entry): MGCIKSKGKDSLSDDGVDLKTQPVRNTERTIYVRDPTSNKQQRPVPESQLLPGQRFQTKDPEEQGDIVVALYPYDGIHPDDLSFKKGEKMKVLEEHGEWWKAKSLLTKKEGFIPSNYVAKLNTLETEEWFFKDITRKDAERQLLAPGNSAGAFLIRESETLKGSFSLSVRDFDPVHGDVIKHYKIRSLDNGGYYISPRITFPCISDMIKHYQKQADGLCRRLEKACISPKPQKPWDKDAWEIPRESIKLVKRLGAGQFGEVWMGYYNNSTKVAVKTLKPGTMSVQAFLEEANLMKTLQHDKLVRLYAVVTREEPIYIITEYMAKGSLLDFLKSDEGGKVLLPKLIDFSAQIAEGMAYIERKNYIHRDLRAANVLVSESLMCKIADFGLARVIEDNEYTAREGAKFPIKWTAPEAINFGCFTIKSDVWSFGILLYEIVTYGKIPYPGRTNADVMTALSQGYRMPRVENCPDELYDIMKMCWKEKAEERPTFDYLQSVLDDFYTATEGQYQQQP

CSK = CSK (Homo sapiens, UniProt P41240); assay: PamChip microarray peptide phosphorylation; conditions: peptide substrate phosphorylated by CSK
Chain of CSK (P41240 whole entry): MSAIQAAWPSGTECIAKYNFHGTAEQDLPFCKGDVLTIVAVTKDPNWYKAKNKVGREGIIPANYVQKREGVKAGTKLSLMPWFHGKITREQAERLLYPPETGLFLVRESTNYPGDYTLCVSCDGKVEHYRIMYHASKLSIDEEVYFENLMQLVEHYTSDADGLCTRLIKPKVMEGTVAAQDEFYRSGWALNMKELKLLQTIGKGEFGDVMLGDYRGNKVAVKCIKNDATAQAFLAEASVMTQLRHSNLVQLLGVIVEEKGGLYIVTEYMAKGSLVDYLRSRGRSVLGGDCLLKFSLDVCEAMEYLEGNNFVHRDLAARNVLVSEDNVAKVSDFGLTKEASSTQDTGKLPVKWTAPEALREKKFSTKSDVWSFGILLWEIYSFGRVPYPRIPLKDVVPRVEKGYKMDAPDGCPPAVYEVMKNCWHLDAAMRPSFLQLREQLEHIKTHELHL

FES^WT [2] = target: T1, FES^WT; assay: PamChip microarray peptide phosphorylation; format: biochemical; conditions: peptide substrate phosphorylated by FES - WT
ABL1 = ABL1 (Homo sapiens, UniProt P00519); assay: PamChip microarray peptide phosphorylation; conditions: peptide substrate phosphorylated by ABL1
Chain of ABL1 (P00519 whole entry): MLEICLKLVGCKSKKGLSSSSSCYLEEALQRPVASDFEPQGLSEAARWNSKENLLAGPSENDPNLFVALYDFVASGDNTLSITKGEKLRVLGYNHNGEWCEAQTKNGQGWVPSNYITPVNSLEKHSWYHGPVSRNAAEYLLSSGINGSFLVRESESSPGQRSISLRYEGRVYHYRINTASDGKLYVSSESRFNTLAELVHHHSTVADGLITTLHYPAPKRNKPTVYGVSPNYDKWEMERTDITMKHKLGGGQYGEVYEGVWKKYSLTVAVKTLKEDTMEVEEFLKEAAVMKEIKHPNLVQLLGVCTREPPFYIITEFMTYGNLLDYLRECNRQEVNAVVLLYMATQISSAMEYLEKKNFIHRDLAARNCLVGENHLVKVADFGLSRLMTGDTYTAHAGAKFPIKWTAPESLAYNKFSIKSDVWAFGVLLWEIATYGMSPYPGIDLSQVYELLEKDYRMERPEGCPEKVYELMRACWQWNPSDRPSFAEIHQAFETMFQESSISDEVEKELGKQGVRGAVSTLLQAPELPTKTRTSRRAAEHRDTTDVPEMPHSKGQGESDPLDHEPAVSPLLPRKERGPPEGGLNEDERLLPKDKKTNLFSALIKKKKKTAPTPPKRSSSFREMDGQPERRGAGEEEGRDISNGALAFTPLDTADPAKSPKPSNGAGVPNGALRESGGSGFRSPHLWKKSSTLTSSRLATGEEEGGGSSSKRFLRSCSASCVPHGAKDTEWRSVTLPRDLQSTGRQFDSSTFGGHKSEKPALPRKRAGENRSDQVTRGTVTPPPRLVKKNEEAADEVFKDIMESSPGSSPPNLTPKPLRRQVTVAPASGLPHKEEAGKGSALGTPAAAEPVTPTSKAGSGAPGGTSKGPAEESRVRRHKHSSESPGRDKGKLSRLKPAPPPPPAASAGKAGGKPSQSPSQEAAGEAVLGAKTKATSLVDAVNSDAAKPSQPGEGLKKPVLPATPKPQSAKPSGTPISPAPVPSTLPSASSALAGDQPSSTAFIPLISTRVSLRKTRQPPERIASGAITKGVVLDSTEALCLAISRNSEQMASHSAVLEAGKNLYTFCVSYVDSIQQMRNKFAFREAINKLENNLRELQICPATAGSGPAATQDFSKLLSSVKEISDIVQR

SYK = SYK (Homo sapiens, UniProt P43405); assay: PamChip microarray peptide phosphorylation; conditions: peptide substrate phosphorylated by SYK

T1 sequence (P07332 448-822): as the sequence (P07332 448-822 S700C) above, with C253S counted along it

Row | Compound | pIC50 FES^WT (FES^WT [1]) | Apparent fold selectivity (FES^S700C; IC50 on FES^WT divided by IC50 on FES^S700C) [fold] | pIC50 FES^S700C (FES^S700C; TR-FRET assay, 5 µM ATP, n = 3) | Relative phosphorylation (% of highest signal) (FGR) | Relative phosphorylation (% of highest signal) (LYN) | Relative phosphorylation (% of highest signal) (CSK) | Relative phosphorylation (% of highest signal) (FES^WT [2]) | Relative phosphorylation (% of highest signal) (ABL1) | Relative phosphorylation (% of highest signal) (SYK)
1 | C=CC(=O)Nc1cccc(Nc2nc(Nc3ccccc3OC)ncc2Cl)c1 [Compound 3] | 6.5 ± 0.06 | 0.65 | 6.3 ± 0.06 | – | – | – | – | – | –
2 | NPT2A_501_513 (AKALGKRTAKYRW; UniProt Q06495 501-513, looked up, fragment) | – | – | – | -2.1 % of highest signal | -0.318 % of highest signal | -0.4 % of highest signal | 0.553 % of highest signal | -0.2 % of highest signal | -0.846 % of highest signal
3 | VINC_815_827 (KSFLDSGYRILGA; UniProt P18206 815-827, looked up, fragment) | – | – | – | -2.6 % of highest signal | -0.3 % of highest signal | -0.442 % of highest signal | 0.223 % of highest signal | 1.1 % of highest signal | -1.0 % of highest signal
4 | MBP_263_275 (GRASDYKSAHKGF; UniProt P02686 263-275, looked up, fragment) | – | – | – | -0.9 % of highest signal | -0.172 % of highest signal | -0.5 % of highest signal | -0.25 % of highest signal | -0.13 % of highest signal | -0.355 % of highest signal
5 | ZBT16_621_633 (LRTHNGASPYQCT; UniProt Q05516 621-633, looked up, fragment) | – | – | – | 3.8 % of highest signal | -0.2 % of highest signal | -0.468 % of highest signal | 0.657 % of highest signal | -0.119 % of highest signal | -1.0 % of highest signal
6 | VGFR1_1320_1332_C1320K/C1321K (KKSPPPDYNSVVL; UniProt P17948 1320-1332, looked up, variant C1320K C1321K) | – | – | – | -2.8 % of highest signal | -0.28 % of highest signal | -0.847 % of highest signal | 2.0 % of highest signal | -0.0535 % of highest signal | 4.3 % of highest signal
7 | VGFR1_1235_1247 (ATSMFDDYQGDSS; UniProt P17948 1235-1247, looked up, fragment) | – | – | – | 0.9 % of highest signal | -0.0433 % of highest signal | -0.5 % of highest signal | -0.11 % of highest signal | -0.543 % of highest signal | 17.6 % of highest signal
